Test results: patent US20230121197A1, “ANTIBODIES SPECIFICALLY BINDING THE CARBOXYMETHYLATED CATALYTIC SUBUNIT OF PROTEIN PHOSPHATASE 2A” (Medizinische Universität Wien, priority 2020, published 2023)

Assays:
[1] = target: T1, carboxymethylated PP4c C-terminal peptide (ac-[…]-CH3) (Homo sapiens, UniProt P60510); assay: Surface plasmon resonance (Biacore T200), steady state analysis, carboxymethylated PP4c peptide; type: binding; settings: PP4 Me peptide, 360 sec contact time, 40 μL/min
T1 construct: The following 11-mer peptides corresponding to the carboxymethylated or non-methylated carboxy-terminus of PP2A and PP4 catalytic subunits were used as antigens
Experimental: The differential affinity of anti-carboxymethylated PP2Ac antibodies, 7C10-C5 and 2A10, to carboxymethylated PP2A catalytic subunit versus noncarboxymethylated PP2A catalytic subunit was determined by surface plasmon resonance (SPR) on a Biacore T200 (GE Healthcare) at the Core Facility Biomolecular & Cellular Analysis (University of Natural Resources and Life Sciences Vienna BOKU). The affinity of 7C10-C5 for carboxymethylated and noncarboxymethylated catalytic subunit of PP4 (PP4c), a PP2A-related phosphatase, was also determined. […] The KD of the binding of 7C10-C5 (or 2A10) to non-carboxymethylated PP2Ac or PP4c could not be determined because at the highest analyte sample concentration (5000 nM) only very weak binding signals were detected indicating KD values of at least >5000 nM or higher. […]
SPR experiments were performed with the BiacoreT200 instrument (Cytiva). […] The sensorgrams obtained were analyzed with BiacoreT200 Evaluation Software (version 3.1). […]

[2] = target: T2, PP6c peptides L305, meL305 (Homo sapiens, UniProt O00743); assay: ELISA with PP6c C-terminal undecapeptides; type: binding
T2 construct: carboxymethylated versus non-methylated PP2Ac, PP4c and PP6c C-terminal undecapeptides
Experimental: To further characterize the carboxymethyl-PP2Ac specificity of monoclonal antibody 7C10-C5 ELISAs were performed on carboxymethylated versus non-methylated PP2Ac, PP4c and PP6c C-terminal undecapeptides.
Specifically, flat-bottom Nunc-Immuno Medisorp 96-well ELISA plates (Thermo; 467320) were coated o/n at 4° C. with 50 μl of either a peptide of the sequence ac-HVTRRTPDYFL-OH (L309) (SEQ ID NO:18) at a concentration of 2 μg/ml in TBS (137 mM NaCl (AppliChem, #131659, 2.7 mM KCl (AppliChem, #131494), 24.8 mM Tris (AppliChem, #A1086), pH 7.4 with HCl), a peptide of the sequence ac-HVTRRTPDYFL-CH3 (meL309) (SEQ ID NO:18) 2 μg/ml in TBS, with a peptide of the sequence (ac-PSKKPVADYFL (L307) (SEQ ID NO:20) at a concentration of 2 μg/ml in TBS or with a peptide of the sequence ac-PSKKPVADYFL-CH3 (meL307) (SEQ ID NO:20) at a concentration of 2 μg/ml in TBS, with a peptide of the sequence ac-IPPRTTTPYFL (L305) (SEQ ID NO:22) at a concentration of 2 μg/ml in TBS or with a peptide of the sequence ac-IPPRTTTPYFL-CH3 (meL305) (SEQ ID NO:22) at a concentration of 2 μg/ml in TBS. […] Bound antibodies were detected colorimetrically by addition of 50 μl of 33 μg/ml […] (TMB) (Sigma, T2885) in 0.1 M sodium acetate pH 6.0 and 0.01% H2O2 (Sigma, H1009). […] The results from 560 nm read were subtracted from the 450 nm read.

[3] = test system: PP6; assay: Summary of cross-reactivities of C-terminal PP2Ac antibodies (Table 4), PP6; settings: antibodies screened for binding methylated PP2Ac
Description: Examples of antibodies with a preference for non-methylated PP2Ac are mouse monoclonal antibody 4B7 (Yu (2001), Mol Biol Cell 12, 185-199), mouse monoclonal antibody 1D7 generated by the Ogris lab but also the rabbit monoclonal E155 antibody from Abeam and the mouse monoclonal F-8 from SCBT that were thought to be specific for pTyr^307.

B1: 7C10-C5: α-carboxymethylation specific mouse monoclonal IgG1 antibody from single clone hybridoma 7C10-C5 (DSM ACC3350) (antibody)
heavy: MYRMQLLSCIALSLALVTNSDVQLQESGPGLVKPSQSLSLTCSVTGYSITSGYYWNWIRQFPGNKLEWMGYISYDGSNNYNPSLKNRISITRDTSKNQFFLKLNSVTTEDTATYYCAGRFAYWGQGTLVTVSAAKTTAPSVYPLAPVCGDTTGSSVTLGCLVKGYFPEPVTLTWNSGSLSSGVHTFPAVLQSDLYTLSSSVTVTSSTWPSQSITCNVAHPASSTKVDKKIEPRGPTIKPCPPCKCPAPNLLGGPSVFIFPPKIKDVLMISLSPIVTCVVVDVSEDDPDVQISWFVNNVEVHTAQTQTHREDYNSTLRVVSALPIQHQDWMSGKEFKCKVNNKDLPAPIERTISKPKGSVRAPQVYVLPPPEEEMTKKQVTLTCMVTDFMPEDIYVEWTNNGKTELNYKNTEPVLDSDGSYFMYSKLRVEKKNWVERNSYSCSVVHEGLHNHHTTKSFSRTPGK
light: MDMRVPAQLLGLLLLWLSGARCDVLMTQTPLSLPVSLGDQASISCRSSQSIVHSNGNTYLEWYLQKPGQSPKLLIYKVSNRFSGVPDRFSGSGSGTDFTLKINRVEAEDLGVYYCFQGSHVPWTFGGGTKLEIKADAAPTVSIFPPSSEQLTSGGASVVCFLNNFYPKDINVKWKIDGSERQNGVLNSWTDQDSKDSTYSMSSTLTLTKDEYERHNSYTCEATHKTSTSPIVKSFNRNEC
modifications: Amino acid sequence of the recombinant 7C10-C5 heavy chain; Amino acid sequence of the recombinant 7C10-C5 light chain
- Rmax [1]: 20.17 RU
- carboxymethylated versus non-carboxymethylated PP6c peptide signal [2]: No significant difference
- PP6 meLeu^305 [3]: — (— <15%)
